The target of one test is T1, σ^70 (purified) (E. coli, UniProt P00579 1-613).
T1 construct: RNA polymerase sigma factor σ70 (RpoD), WT E. coli; also called RpoD
Nature of the test: cryo-EM structure; purified Eσ^70 incubated with ssrA promoter DNA (threefold excess), then CedA (fivefold molar excess over RNAP); complex repurified on Superose 6 Increase in 30 mM HEPES pH 8.0, 100 mM KCl, 5 mM MgCl2, 0.5 mM TCEP; 2.76 Å. Conditions: both partners purified.

Test [1] concerns the target T2, RNA polymerase β subunit (in purified RNAP) (E. coli, UniProt P0A8V2 1-1342).
T2 construct: RNA polymerase β subunit (RpoB), WT E. coli; Stood in the assay as a subunit of the purified RNAPσ70 holoenzyme; also called β-lobe/βi4
The description is as above. Conditions: both partners purified.

T1 sequence (P00579 whole entry): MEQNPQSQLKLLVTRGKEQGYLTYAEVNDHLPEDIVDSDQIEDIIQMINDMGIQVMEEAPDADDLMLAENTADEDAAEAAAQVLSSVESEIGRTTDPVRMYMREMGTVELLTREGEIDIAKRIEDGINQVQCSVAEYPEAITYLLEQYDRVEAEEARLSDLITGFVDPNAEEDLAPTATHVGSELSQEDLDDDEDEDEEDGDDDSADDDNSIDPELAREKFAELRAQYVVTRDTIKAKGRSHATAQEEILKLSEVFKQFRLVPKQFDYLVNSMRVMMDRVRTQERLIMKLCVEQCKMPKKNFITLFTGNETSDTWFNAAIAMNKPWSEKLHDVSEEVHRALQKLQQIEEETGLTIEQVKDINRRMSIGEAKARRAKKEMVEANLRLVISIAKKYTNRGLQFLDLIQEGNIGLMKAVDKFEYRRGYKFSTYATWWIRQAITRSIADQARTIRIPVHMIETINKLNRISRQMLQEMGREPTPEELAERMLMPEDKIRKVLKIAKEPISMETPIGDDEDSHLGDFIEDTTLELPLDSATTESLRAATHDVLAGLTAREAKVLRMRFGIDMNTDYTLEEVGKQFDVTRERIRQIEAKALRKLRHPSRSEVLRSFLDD
T2 sequence (P0A8V2 whole entry): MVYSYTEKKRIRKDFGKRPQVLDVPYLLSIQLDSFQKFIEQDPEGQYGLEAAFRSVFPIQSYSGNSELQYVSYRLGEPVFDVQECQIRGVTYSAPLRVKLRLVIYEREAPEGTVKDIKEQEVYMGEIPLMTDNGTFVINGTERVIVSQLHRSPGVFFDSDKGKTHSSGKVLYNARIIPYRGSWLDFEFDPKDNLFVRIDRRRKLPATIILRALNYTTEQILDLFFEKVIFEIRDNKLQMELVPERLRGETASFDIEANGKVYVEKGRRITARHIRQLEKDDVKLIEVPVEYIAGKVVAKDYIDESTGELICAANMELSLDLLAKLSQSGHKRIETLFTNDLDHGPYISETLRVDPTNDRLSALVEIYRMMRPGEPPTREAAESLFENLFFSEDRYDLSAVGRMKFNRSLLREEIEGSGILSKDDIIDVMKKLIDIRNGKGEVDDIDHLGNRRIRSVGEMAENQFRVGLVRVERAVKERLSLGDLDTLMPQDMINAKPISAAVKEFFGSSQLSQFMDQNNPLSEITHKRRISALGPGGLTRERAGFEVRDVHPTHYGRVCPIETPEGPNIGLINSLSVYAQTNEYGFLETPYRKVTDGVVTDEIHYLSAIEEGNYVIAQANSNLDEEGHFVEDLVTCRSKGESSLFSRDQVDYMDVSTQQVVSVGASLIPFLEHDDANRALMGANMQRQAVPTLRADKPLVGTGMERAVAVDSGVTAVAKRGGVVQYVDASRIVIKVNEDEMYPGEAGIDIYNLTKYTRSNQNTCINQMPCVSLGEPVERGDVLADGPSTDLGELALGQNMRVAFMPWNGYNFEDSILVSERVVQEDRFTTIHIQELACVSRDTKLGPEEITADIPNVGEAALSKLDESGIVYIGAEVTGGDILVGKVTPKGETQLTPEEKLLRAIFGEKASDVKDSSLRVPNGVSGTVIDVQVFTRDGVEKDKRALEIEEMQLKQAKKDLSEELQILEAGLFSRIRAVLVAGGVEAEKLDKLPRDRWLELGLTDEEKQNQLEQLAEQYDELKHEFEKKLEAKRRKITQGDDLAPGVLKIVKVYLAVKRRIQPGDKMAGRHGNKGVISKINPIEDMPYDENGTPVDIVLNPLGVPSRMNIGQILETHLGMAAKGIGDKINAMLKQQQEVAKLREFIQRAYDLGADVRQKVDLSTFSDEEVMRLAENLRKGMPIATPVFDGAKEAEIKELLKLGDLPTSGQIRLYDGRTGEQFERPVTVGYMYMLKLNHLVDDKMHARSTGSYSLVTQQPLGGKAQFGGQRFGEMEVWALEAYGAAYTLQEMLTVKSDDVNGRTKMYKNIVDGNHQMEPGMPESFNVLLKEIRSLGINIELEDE

B1: CedA (purified recombinant) (natural protein, E. coli, UniProt P0AE60 1-80, looked up)
chain: MKKPLRQQNRQIISYVPRTEPAPPEHAIKMDSFRDVWMLRGKYVAFVLMGESFLRSPAFTVPESAQRWANQIRQEGEVTE
notes: CedA, E. coli; the open reading frame of cedA amplified from the MG1655 chromosome; also called WT CedA; source: E. coli BL21(DE3), pSumoH10-cedA, purified (HisTrap, Ulp1 tag removal, HiTrap SP, Superdex 75); not shown: 10× His, N-terminal, cleaved; SUMO, N-terminal, cleaved
Turning to B1, the binding result (with σ^70 (purified); in test [1]) was “binds” in each case.
